Entries after “also recorded” stand apart in the source; their conditions may differ.
Columns and labels:
[1] = PapG Luminex ligand binding assay with globoside GbO4; conditions: result in words
Method: 9. PapG Ligand Binding Assay with Globoside GbO4
To determine the ability of PapGLD mutants to bind the porcine derived globotetraosyl ceramide ligand GalNAc-Gal-Gal-Glc-ceramide (GbO4), a Luminex ligand binding assay was developed. Surfactant Protein-A (SP-A) was coupled to the surface of MagPlex beads by EDC/NHS, to capture the lipid tail of the globotetraosyl ceramide. The Globotetraosyl ceramide/SP-A beads were incubated with an eight-point threefold titration of PapG in a 96 well flat bottom white plate with final volume of 100 microliters of 50 mM HEPES PH 7.4, 10 mM NaCl, 0.0005% Tween 20 shaking at 300 rpm, 4° C. overnight. After 20-24 hours the ligand binding plates were read on a FlexMap 3D plate reader for measurement of well-bead region specific MFI. Ligand binding equilibrium dissociation constants (Kd) were calculated assuming one site specific binding and interpolated using non-linear curve fitting (GraphPad Prism) as the ligand concentration needed to achieve half-maximal binding. The Luminex derived apparent Kd values are based on approximately fifty bead counts per assay sample.
Binding of PapG proteins to GbO2 or GbO4 ligands was evaluated using a Luminex platform wherein ligands were coupled to MagPlex beads via surfactant protein A (for […]) or directly using […] conjugation (for […]). This assay was used to rank order binding affinities of the mutants, reported as Kd values interpolated from protein antigen titration curves (Table 7).

[2] = Thermal shift (SYPRO orange) melting temperature, apo form; assay type: physicochemical; conditions: apo state, PBS pH 7.4
Method: PapG proteins were added to assay buffer (consisting of 4% DMSO, 1:1000 dilution of SYPRO orange (Invitrogen S6650) in PBS pH 7.4) at a final concentration of […]. Melt curves were analyzed in a QuantStudio 6 Real-time PCR system (ThermoFisher) using a dissociation protocol from 25° C. to 99° C., at 0.05° C./second. ROX was specified as the reporter.
The thermal stability of PapG WT and mutant proteins were determined using a SYPRO orange thermal shift-based differential scanning fluorimetry assay, wherein Tm designates the temperature at which 50% of the protein is unfolded. Non-covalent ligands often stabilize protein targets upon specific binding, resulting in an increase in protein melting temperature. Tm were therefore determined in the presence and absence of GbO3 for PapG, and the difference in Tm (ΔTm) of protein in the presence of ligand relative to the apo form was calculated.

[3] = system: E. coli strain CFT073 expressing the fimbrial adhesin PapG; assay: PapG hemagglutination inhibition (HAI) assay on sera of mice immunized with PapG modRNA LNPs; assay type: in vivo; conditions: 1 μg, 50 μl IM
From the text: Escherichia coli to the uroepithelium of human kidney. The PapG lectin binds to the globoside (GbO4) glycolipid, which is enriched in urinary tract tissue and consists of the tetrasacharide GalNAcβ1-3Galα1-4Galβ1-4Glc linked to ceramide. Here we present the use of a hemagglutination inhibition assay (HAI) to determine vaccine functional responses to protein subunit PapG or mRNA-expressed PapG antigens. In this assay the agglutination of human red blood cells (hRBCs) expressing GbO4 is caused by live E. coli CFT073 bacteria expressing PapG. The HAI assay measures the ability of PapG-elicited antibodies to prevent hRBC agglutination, exemplifying inhibition of the key bacterial adherence mechanism leading to clinical pyelonephritis. The assay was used to characterize the functional activity of PapG monoclonal antibodies (mAbs) raised against a PapG lectin domain subunit antigen. PapG HAI data from a mouse immunogenicity study are described that evaluated various 5 monovalent PapG modRNA LNPs and a PapG subunit comparator.
In this mouse study immunogenicity of different PapG mRNA constructs were evaluated. […]
iii. PapG Hemagglutination Inhibition Assay (HAI) 1. Preparation of Single Use Frozen E. coli CFT073 Banks Frozen bacterial stocks for use in the PapG HAI are stored at a concentration of ˜15 OD/mL. For stock preparation, take 6 ×100 μL of frozen parental strain CFT073 glycerol stock to seed six overnight cultures with ˜85 mL Luria's Broth (LB) each in 250 mL vented flasks. Flasks are shaken at 200 rpm and 37° C. overnight. On the same day, prepare 100 mL LB media with 30% glycerol and 0.4% sucrose by mixing […] 80% Glycerol with 0.8 mL 50% Sucrose in 64 mL LB and pre-chill at 4° C. After ˜16 h growth, determine the OD600 nm of each flask with the SpectraMax M5e plate reader by adding 100 μL culture to 900 μL LB (1:10 dilution). After reading the OD600, harvest cells by pelleting in a centrifuge at 4,000g, 4° C., for 30 minute. Determine the total OD of each of the six flasks, by multiplying the volume by OD/mL of each flask and divide by 15 OD to give the appropriate pellet resuspension volume. Discard supernatants and resuspend all pellets in the pre-chilled LB cryopreservant containing 30% glycerol and 0.4% sucrose, with a final volume as calculated above. Pool all resuspended pellets and mix gently, then aliquot into 1 mL/cryotube, and freeze at −70° C.
2. Preparing 10% hRBC Working Solution From Stock
Gently mix human red blood cells (hRBC) bottle (Rockland) by rocking ˜20×times, pipet out 10 mL of the hRBCs into a 15 ml conical tube. Centrifuge at 2,000 rpm(˜990×g) for 10 minutes and 4° C. Aspirate and discard the supernatant, then resuspend the pellet with 9 mL 4° C. PBS. The packed hRBCs in 15 mL conical tube should constitute roughly 1 mL of this total volume. Store these 10% hRBCs at 4° C. until use. […]
iv. PapG Hemagglutination Inhibition (HAI) Assay
The PapG hemagglutination inhibition (HAI) assay uses human red blood cells (hRBCs), which naturally express the PapG ligand GbO4 (globotetraosyl ceramide) on the cell surface, and the E. coli strain CFT073 expressing the fimbrial adhesin PapG. Upon mixing bacteria with hRBCs, […] cells remain suspended (presenting as a cloudy well), while no binding results in the red blood cells falling out of solution towards the center of the well (observed as pellet).
The total final well volume is 100 μL, with serum dilutions comprising 25 μL of this volume, strain CFT073 cells in […] volume, and hRBCs in a 50 μL volume. The assay plate is a V-bottom plate to which 25 μL 4° C. PBS is initially added to all wells. The positive control wells receive an additional 25 μL 4° C. PBS. The no-serum negative control consists of E. coli CFT073 cells plus hRBCs only (resulting agglutinated well appears cloudy). To accommodate pre-diluted sera transferred from the serum Master Dilution plate (MDP) an extra 5 μL 4° C. PBS is added to wells in Row A of the assay plate (columns 1 to 12). […]

Molecule	binding to GbO4 ligand [1]	Tm (Ave.) [2] [°C]	Step Titer GMT (HAI) ([3]; weeks 0, 4, bleed week 6, GMT of individual titers)	Step Titer Pool (HAI) ([3]; weeks 0, 4, bleed week 6, serum pool)
PapG^LD N96S G104A: PapG lectin domain N96S with G104A ligand binding site mutation; SEQ ID NO: 16 (protein) METDTLLLWVLLLWVPGSTGWNNIVFYSLGNVNSYQGGNVVITQRPQFITSWRPGIATVTWNQCNGPEFADGSWAYYREYIAWVVFPKKVMTKNGYPLFIEVHNKGSWSEENTGDSDSYFFLKAYKWDERAFDAGNLCQKPGETTRLTEKFNDIIFKVALPADLPLGDYSVTIPYTSGIQRHFASYLGARFKIPYNVAKTLPRENEMLFLFKNIGG	prevent binding to GbO4; also recorded: lower the binding affinity; also recorded: eliminate ligand binding	64.54		
PapG^LD N96S WTv1: WT PapG lectin domain (V1, first PapG operon), N96S removes non-native glycosylation, His-tagged; SEQ ID NO: 13 (protein, His tag) METDTLLLWVLLLWVPGSTGWNNIVFYSLGNVNSYQGGNVVITQRPQFITSWRPGIATVTWNQCNGPEFADGSWAYYREYIAWVVFPKKVMTKNGYPLFIEVHNKGSWSEENTGDSDSYFFLKGYKWDERAFDAGNLCQKPGETTRLTEKFNDIIFKVALPADLPLGDYSVTIPYTSGIQRHFASYLGARFKIPYNVAKTLPRENEMLFLFKNIGG		61.29		
PapG^LD N96S G122A: PapG lectin domain N96S with G122A putative conformation stabilizing mutation; SEQ ID NO: 20 (protein) METDTLLLWVLLLWVPGSTGWNNIVFYSLGNVNSYQGGNVVITQRPQFITSWRPGIATVTWNQCNGPEFADGSWAYYREYIAWVVFPKKVMTKNGYPLFIEVHNKGSWSEENTGDSDSYFFLKGYKWDERAFDAGNLCQKPAETTRLTEKFNDIIFKVALPADLPLGDYSVTIPYTSGIQRHFASYLGARFKIPYNVAKTLPRENEMLFLFKNIGG	reduced binding			
PapG^DSF N96S N242S N286S: Full-length donor strand complemented PapG, fully aglycosylated at N96S, N242S and N286S, His-tagged (protein) WNNIVFYSLGNVNSYQGGNVVITQRPQFITSWRPGIATVTWNQCNGPEFADGSWAYYREYIAWVVFPKKVMTKNGYPLFIEVHNKGSWSEENTGDSDSYFFLKGYKWDERAFDAGNLCQKPGETTRLTEKFNDIIFKVALPADLPLGDYSVTIPYTSGIQRHFASYLGARFKIPYNVAKTLPRENEMLFLFKNIGGCRPSAQSLEIKHGDLSINSANNHYAAQTLSVSCDVPANIRFMLLRSTTPTYSHGKKFSVGLGHGWDSIVSVNGVDTGETTMRWYKAGTQSLTIGSRLYGESSKIQPGVLSGSATLLMILPGGSSGGADVQINIRGNVYIPP		61.82		
BMD576_PapG-DSF K172A_Thy1-GPI: monovalent PapG modRNA LNP; RNA construct SEQ ID NO: 66 (nucleic acid, modRNA in LNP) AGGAGGACUGGUCGAACCUGCAUAGUGAUCAUAAGGUCAGCAUAGCCACCAUGGAGACCGACACCCUCCUGCUGUGGGUGCUGUUACUGUGGGUGCCCGGUAGCACCGGCUGGAACAACAUCGUGUUCUACAGCCUGGGCAACGUGAACAGCUACCAAGGCGGCAACGUGGUGAUCACACAGAGACCUCAGUUCAUCACAAGCUGGAGACCCGGCAUCGCCACCGUGACCUGGAAUCAGUGCAACGGCCCCGAGUUCGCCGACGGCAGCUGGGCCUACUACAGAGAGUACAUCGCCUGGGUGGUGUUCCCCAAGAAGGUGAUGACCAAGAACGGCUACCCCCUGUUCAUCGAGGUGCACAACAAGGGCAGCUGGAGCGAGGAGAACACCGGCGACAGCGACAGCUACUUCUUCCUGAAGGGCUACAAGUGGGACGAGAGAGCCUUCGACGCCGGCAACCUGUGUCAGAAGCCGGGGGAGACCACAAGACUUACCGAGAAGUUCAACGACAUCAUCUUCAAGGUGGCCCUGCCCGCCGACCUGCCCCUGGGCGACUACAGCGUGACCAUCCCCUACACAAGCGGCAUUCAGAGACACUUCGCUAGCUACCUGGGCGCUAGAUUCGCCAUCCCCUACAACGUGGCCAAGACCCUGCCUAGAGAGAACGAGAUGCUGUUCCUGUUCAAGAACAUCGGCGGCUGCAGACCUAGCGCUCAGAGCCUGGAGAUCAAGCACGGCGACCUGAGCAUCAACAGCGCCAACAACCACUACGCCGCUCAGACCCUGAGCGUGAGCUGCGACGUGCCCGCCAACAUCAGAUUCAUGCUGCUGAGAUCAACCACCCCCACCUACAGCCACGGCAAGAAGUUCAGCGUGGGCCUGGGCCACGGCUGGGACAGCAUCGUGAGCGUGAACGGCGUGGACACGGGCGAGACCACUAUGCGUUGGUACAAGGCCGGCACACAGAGCCUGACCAUCGGCAGCAGACUGUAUGGCGAAAGCUCCAAAAUCCAACCCGGCGUGCUGUCGGGGAGCGCCACCCUGCUGAUGAUACUGCCCGGAGGCAGCAGCGGCGGCGCCGACGUGCAGAUCAACAUCAGAGGCAACGUGUAUAUUCCGCCUAGCAGUGGUGGUGGGGGUAGCUCCGGCUCCGGAAGCAGCUGCGAGGGCAUCAGCCUGCUGGCUCAGAACACAAGCUGGCUGCUGCUGCUGCUGCUGAGCCUGAGCCUGCUGCAAGCCACCGACUUCAUGAGCCUGUGAUGAGCUCGCUUUCUUGCUGUCCAAUUUCUAUUAAAGGUUCCUUUGUUCCCUAAGUCCAACUACUAAACUGGGGGAUAUUAUGAAGGGCCUUGAGCAUCUGGAUUCUGCCUAAUAAAAAACAUUUAUUUUCAUUGCAAAAAAAAAAAAAAAAAAAAAAAAAAAAAAAAAAAAAAAAAAAAAAAAAAAAAAAAAAAAAAAAAAAAAAAAAAAAAAAAAA			85,681	81,000
